No end group written: not given here. *: point of attachment. Biotin = O=C1N[C@H]2[C@H](CS[C@H]2CCCCC(=O)*)N1
What was measured:
[1] = biological target: T1, ERK2 (soluble ERK2 used in the ELISAs of Examples 10 to 12) (Mus musculus (Mouse), UniProt P63085 1-358, limits assumed); experiment: ELISA of ERK2 on synthetic peptide
[2] = biological target: T2, GST.ERK2 (non-phosphorylated ERK2 coupled to glutathione-S-transferase) (Mus musculus (Mouse), UniProt P63085 1-358); experiment: ELISA, biotinylated peptide on streptavidin plate, detection with SC1647
T2 construct: not shown: glutathione-S-transferase encoded by pGEX vector; N-terminal position assu
Experimental: Peptide fragments corresponding to regions of the cytoplasmic tail domain of the β6 subunit were screened in an enzyme-linked immunosorbent assay (ELISA) for binding with ERK2. The 52 amino acid long β6 cytoplasmic tail is shown in FIG. 16 as are the amino acid sequences for the cytoplasmic domains of the β1 to β3 subunits. In particular, four synthetic peptides designated fragment 1 to fragment 4 were prepared and biotinylated at the N-terminal end of each, respectively (Auspep Pty Ltd, Melbourne Australia).
Overlapping biotinylated fragments 1 to 4 were coated onto streptavidin coated polystyrene plates (Pierce, Rockford Ill. USA, Cat No. 15125) and the ELISA performed substantially according to manufacturers instructions. […]
Binding of ERK to the peptides is detected using 100 µl anti-ERK1/2 mAb SC1647 (Santa Cruz) as the primary antibody at a dilution of 1:700 (isotype matched antibody IgG2b is used as a control). […] A […] of detection reagent (alkaline phosphatase detection kit-Biorad) is then introduced into each well after a final washing step and allowed to react for 15-30 minutes at room temperature in the dark before absorbance is measured at 405 nm. […]

[3] = biological target: T3, ERK2 cleaved from GST-ERK2 by thrombin (Mus musculus (Mouse), UniProt P63085 1-358, limits assumed); experiment: ELISA with thrombin-cleaved ERK2 (FIG. 23)
T3 construct: also called ERK2 (thrombin cleaved)

[4] = biological target: T1, ERK2 (soluble ERK2 used in the ELISAs …); experiment: ELISA, corrected for non-specific binding (FIG. 34)
[5] = biological target: T2, GST.ERK2 (non-phosphorylated ERK2 …); experiment: ELISA over a range of peptide concentrations (FIG. 20)

T2 sequence (P63085 whole entry): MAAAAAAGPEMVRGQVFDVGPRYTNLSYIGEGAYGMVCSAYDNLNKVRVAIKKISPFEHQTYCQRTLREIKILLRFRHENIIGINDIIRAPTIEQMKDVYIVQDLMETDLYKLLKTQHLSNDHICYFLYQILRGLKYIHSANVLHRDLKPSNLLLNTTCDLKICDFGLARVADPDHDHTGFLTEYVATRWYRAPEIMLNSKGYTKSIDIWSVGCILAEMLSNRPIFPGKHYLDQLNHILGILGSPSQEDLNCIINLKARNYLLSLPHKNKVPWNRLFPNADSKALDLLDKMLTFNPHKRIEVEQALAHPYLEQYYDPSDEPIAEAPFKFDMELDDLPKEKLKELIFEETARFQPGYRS
T1 sequence (P63085 whole entry): as above
T3 sequence (P63085 whole entry): as above

KFEKEKMNAKWDTGENPIYK (also called β1 peptide) [β1 cytoplasmic domain peptide KFEKEKMNAKWDTGENPIYK]
binding result [1]: no binding (tested: ERK2 (1 µm) by the legend of FIG. 35C)

Biotin-RSKAKWQTGTNPLYRGSTST (also called peptide fragment 2) [Fragment 2 of the β6 cytoplasmic tail]
binding result [2]: binds

RSKAKWQTGTNPLYR (also: biotinylated, position not given here, also called 15-mer β6 peptide) [15 mer test peptide (seq. 4) RSKAKWQTGTNPLYR]
binding result [3]: binds
binding result [4]: binds
binding result [5]: binds

RARAKWDTANNPLYK (also called β3 peptide) [β3 cytoplasmic domain peptide RARAKWDTANNPLYK]
binding result [4]: binds

RSKAKNPLYR (4 with WQTGT omitted) [10 mer peptide 10(4) RSKAKNPLYR]
binding result [3]: binds

RSKAKWQTGT (also: biotinylated, position not given here) [10 mer test peptide RSKAKWQTGT]
binding result [5]: binds

RSRARYEMASNPLYR (also called β5 peptide; β5 fragment) [β5 cytoplasmic domain peptide RSRARYEMASNPLYR]
binding result [4]: binds
